Laboratory results as given in the RNAGym collection of RNA variant scans (doi:10.1021/acssynbio.7b00057).

B1: Pistol ribozyme (parent)
chain: GGGUCGUUGUUCCAUAAUCGCGUGGAUAUGGCACGCAAGUUUCUACCGGGCACCGUAAAUGUCCGACUGGAGCCGUUCGGGCGGCUAUAAACAGACCUCAGGCCCGAAGCGUGGCGGCACCUGCCGCCGGUGGUAAAAAAGAUCGGAAGAGCACACGUCU

Variants of: B1
Assay: aptazyme ON/OFF ratio, guanine; higher = stronger switching; co-transcriptional cleavage with and without guanine

Row | Variant | aptazyme ON/OFF ratio
1 | U7C G9A U11A C13U | 1.13
2 | U7C U8A G9C U11C C12A C13A | 1.04
3 | G9U U10C C13U | 1.72
4 | U7A U10G C12A C13A | 1.16
5 | U7C U8G G9C U10G U11C C12G C13A | 1.31
6 | U7C U8C G9C U10C U11G C12G C13A | 1.08
7 | U7A U8C G9U U10C U11A C12U C13A | 1.13
8 | U8C G9A U10G C12U C13A | 1.19
9 | U7G U8G G9U U10A U11A C12G C13U | 1.14
10 | U7C U8A G9C U10G U11C C12A C13A | 1.36
11 | U7A U8G G9A U10A C12A C13U | 1.37
12 | U7C G9A U10A U11C C12G C13A | 1.27
13 | U7A U8C G9C U10A U11A C13A | 1.07
14 | U7G U8A U11C C12U C13U | 1.47
15 | U7C G9C U10C U11A C12U C13A | 1.03
16 | U7G U8A U10G U11A C13U | 1.4
17 | U7C U8G G9A U10G C12A | 1.37
18 | U7C G9C U10A U11G C12U C13A | 1.12
19 | U7A U8A G9A U10G C12A | 1.18
20 | U7A U8A U10C U11G C12U C13G | 1.1
21 | U7C U8C G9U U10A U11A C13G | 1.14
22 | U7A G9C U10A U11C C12A C13G | 1.1
23 | U8C G9C U11A C12A C13U | 1.05
24 | U7C U8A G9C U11A C13U | 1.13

Row | Variant | aptazyme ON/OFF ratio
25 | U7A U8G U10C U11C C12U | 1.53
26 | U7C U8G U10A C12G C13U | 1.18
27 | G9U U10A U11A C12U | 1.64
28 | U8G G9U U11A C12A C13U | 1.1
29 | U7G U8C U10C U11C C12A C13G | 1.33
30 | U7A U8A G9U U10C U11A C12U C13A | 1.14
31 | U8C U11G C12A C13A | 1.16
32 | U7A U8G G9A U10C U11C C13A | 1.07
33 | U7A U8G G9C U11C C12G C13U | 1.37
34 | U8G U10G U11C C12A C13G | 1.08
35 | U7A U8G G9C U11G C13A | 1.43
36 | U7G U8G G9U U11G C12A | 1.32
37 | U7C U8G G9A U10A U11G C12U C13G | 1.25
38 | U7A U8C G9U U10C U11C C12A C13A | 1.09
39 | U7G U8C G9A U10A C12A C13G | 1.13
40 | U8C G9U U10G U11A C12A C13U | 1.72
41 | U7G U8A G9C C12A C13A | 1.04
42 | U7C U8A G9U U10C C12G C13A | 1.18
43 | U7A U10A C12A C13A | 1.27
44 | U8C U10G C13U | 1.37
45 | U7G U8G G9C U11A C12U C13G | 1.15
46 | U7C U10C C12G C13G | 1.18
47 | U7C U8C U10C U11C C12G | 1.2
48 | U7G U8C U11C C12U C13G | 1.3

Row | Variant | aptazyme ON/OFF ratio
49 | U8A G9U U10A U11C | 1.03
50 | U7A U8G G9A U10G U11A | 1.06
51 | U7C U8G G9U U11C C13A | 1.12
52 | U7A U8A G9C C12A C13A | 1.17
53 | U7A G9C U10A C12A C13A | 1.14
54 | U7G U8A G9C U11A C13A | 1.05
55 | U7A U8G G9U U10G C12G | 1.15
56 | G9U U10G C12A | 1.47
57 | U7A U8C G9A U10A C12U C13G | 1.2
58 | U7C U8A U11C C13U | 1.04
59 | U10G U11C C12U | 1.08
60 | U7C U8G G9C U11C C12A C13U | 2.13
61 | U7C U8C U10C U11C C13A | 1.31
62 | U7A U8G U11C C12A C13A | 1.17
63 | U8C G9C U11C C13U | 1.04
64 | U7G U8G G9C U11G C12U C13G | 1.05
65 | U7G U8C G9C U10C U11A C12A C13G | 1.09
66 | U7C U8C G9C U11G C12U C13G | 1.07
67 | U7G G9C U10C U11C C13G | 1.04
68 | U7A U8G G9A U10C U11C C12G C13U | 1.04
69 | U8A C12U C13A | 1.28
70 | U7A U8A U10G U11A C12G C13G | 1.16
71 | U7C U8A G9A U10G U11C C12A C13A | 1.15
72 | U7G U8A G9A U10C C12G C13A | 1.11

Row | Variant | aptazyme ON/OFF ratio
73 | U7A G9U U10A U11C C12U | 1.08
74 | U7C U8G G9C U10C U11C C12U | 1.04
75 | U7C U8G G9C C13U | 1.04
76 | U7C U8A G9A U10G U11C C12U | 1.07
77 | U7G U8A G9U U10C C12U | 1.32
78 | G9A U10A U11G C13U | 1.51
79 | U7G U10C U11G C12A C13U | 1.11
80 | U7A U8G G9A U10C U11A C12G C13A | 1.04
81 | U7C U8A G9A U11G C12U C13A | 1.16
82 | U7G U8A G9U U10C U11G C13G | 1.09
83 | U7A U8G G9A U10G U11A C12A C13U | 1.11
84 | U7G U8C G9A U10G U11A C12U C13A | 1.09
85 | U7A U8G G9A U10A C12G C13G | 1.33
86 | U8C G9U U10G U11A C12U C13U | 1.31
87 | U7A G9C C13U | 1.12
88 | U8C U10C U11G C13U | 1.28
89 | U7G U8A G9U U10C U11A | 1.41
90 | U7C U8A U10C U11G C12G | 1.37
91 | U7G U8C U10A U11G C12U C13A | 1.22
92 | U7A G9C U10A C12A C13U | 1.23
93 | U7A G9U U10G C12A C13A | 1.16
94 | U8C G9U U10C U11C | 1.05
95 | U7C G9A U10C C12U | 1.2
96 | U7A U8C G9C U10A U11C C12G C13U | 1.27

Row | Variant | aptazyme ON/OFF ratio
97 | U7A G9U U10A U11G C12G C13U | 1.18
98 | U7A U8G G9A U10G U11A C12G C13G | 1.11
99 | G9A U10G U11G C12A | 1.11
100 | U7A U8A G9U U10G U11C | 1.05
101 | U7G U8A G9U U10C U11C C12A | 1.09
102 | U7G G9U U11C C13U | 1.65
103 | U7C U8A G9U U10A U11A C13G | 1.07
104 | U8A G9A U10C C12A C13A | 1.19
105 | U7A U8A G9U U10A U11C C12U C13A | 1.06
106 | U7A U8C U10A U11G C12A C13U | 1.22
107 | U7A U8A G9A U10C U11A C12A C13A | 1.11
108 | U7G U8C G9C U10C U11G C13G | 1.14
109 | U7C U8G G9U U10A U11C C12U C13U | 1.06
110 | U7G G9C U10C C13G | 1.09
111 | U7G U8C G9C U10G U11C C12A C13A | 1.34
112 | G9C U10G U11G C12A C13A | 1.11
113 | U7C U8G G9U U10A U11G C12U C13U | 1.14
114 | U7G U8C G9C U10C C12U C13A | 1.07
115 | U7C U8C G9A U10C U11C C12U C13U | 1.32
116 | U7C U8C G9U U10G U11A C12G | 1.25
117 | U7G G9U U10A U11A C12G | 1.41
118 | U7G U8C G9A U11G C13U | 1.19
119 | U8A G9A U10G C12U | 1.5
120 | U7C U8G G9A U10G U11A C12A C13G | 1.3

Row | Variant | aptazyme ON/OFF ratio
121 | U7G G9A U10C C12G C13A | 1.09
122 | U7G U8C G9U U10C U11C C12U C13G | 1.41
123 | U7A G9C U10G U11C C12A C13A | 1.05
124 | U7A U8A G9C U10A U11A C12A C13A | 1.37
125 | U7C U8G U10A U11G C13G | 1.06
126 | U7C U8G G9C U11G C12A C13A | 1.14
127 | U7A U8A U10C C12U | 1.68
128 | U7A U8A G9C U11C C12A C13U | 1.05
129 | G9U U10G U11G C12G C13A | 1.25
130 | U8A U10A U11G C12A C13A | 1.13
131 | U8C G9U U11A C13G | 1.03
132 | U7A U8A U10C C12A | 1.16
133 | U7G U8A G9C U10C U11G C12A C13G | 1
134 | U8C U10A C12U | 1.1
135 | U7C G9A U10G U11C C12A | 1.28
136 | U7A U8C U10C U11A C12A | 1.29
137 | U7C G9A U10C U11A C12A C13G | 1.22
138 | U7C U10G U11C C12A C13G | 1.11
139 | U8A G9C U10G U11C C13A | 1.11
140 | U8C G9C U10G U11G C13A | 1.11
141 | U8C G9C U10A U11C C12A C13G | 1.18
142 | U8A G9C U10A U11G C12A C13A | 1.14
143 | U7G G9C U10G U11C C12G C13A | 1.27
144 | U7A U8A U10A C12A C13A | 1.23

Row | Variant | aptazyme ON/OFF ratio
145 | U7A C12G C13G | 1.26
146 | U7C U8A G9U U10A U11C C12U C13U | 1.21
147 | U7C U8G G9A U10C U11G C12U | 1.29
148 | U7C U8G G9A U10G C12U | 1.37
149 | U7C U8G G9C U10C U11G C13U | 1.19
150 | U7A U8A G9U U10C U11C C12G | 1.06
151 | U7A U8A G9C U10G U11C C12A C13A | 1.19
152 | U8C G9U U11A | 1.35
153 | U8A G9A U10A U11A C12U | 1.13
154 | G9A U10A U11G C12U C13A | 1.34
155 | U7G U8A U11A C12G C13A | 1.08
156 | G9C U10C U11C | 0.976
157 | U8C G9U U10G U11G C12A | 1.22
158 | U8G U10G U11A C13A | 1.16
159 | U7A U8C G9C U10C C12A C13U | 0.999
160 | U7A U8C G9A U10G C12U C13A | 1.23
161 | U8C U10G U11A C12A C13U | 1.2
162 | U7G U8C G9A U10A U11C C12G C13A | 1.08
163 | U7A G9A U10G U11C C13U | 1.02
164 | U7C U8A U10C U11C C12G | 1.25
165 | U7G U10A U11A C12U C13G | 1.13
166 | U7C G9A U10C U11C C13G | 1.02
167 | U7A G9A U11A C12U C13G | 1.22
